# Assay results reported in patent publication US20090149389A1 (PURDUE RESEARCH FOUNDATION, published 2009).
# T1: Aurora-A (h) (human (h), UniProt O14965 1-403)
# T1 sequence (looked up): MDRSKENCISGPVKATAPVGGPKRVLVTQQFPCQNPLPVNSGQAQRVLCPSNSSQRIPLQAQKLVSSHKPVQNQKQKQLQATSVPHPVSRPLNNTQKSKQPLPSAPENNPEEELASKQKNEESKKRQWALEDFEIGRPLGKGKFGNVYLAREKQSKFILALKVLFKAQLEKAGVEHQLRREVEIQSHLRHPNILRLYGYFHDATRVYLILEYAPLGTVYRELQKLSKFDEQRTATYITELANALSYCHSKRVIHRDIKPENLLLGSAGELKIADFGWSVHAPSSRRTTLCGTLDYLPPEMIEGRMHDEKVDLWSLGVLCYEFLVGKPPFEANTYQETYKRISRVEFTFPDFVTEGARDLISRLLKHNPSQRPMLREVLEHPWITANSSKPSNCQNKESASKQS
# T2: PKG1β (h) (human (h), UniProt Q13976-2 1-686)
# T2 sequence (looked up): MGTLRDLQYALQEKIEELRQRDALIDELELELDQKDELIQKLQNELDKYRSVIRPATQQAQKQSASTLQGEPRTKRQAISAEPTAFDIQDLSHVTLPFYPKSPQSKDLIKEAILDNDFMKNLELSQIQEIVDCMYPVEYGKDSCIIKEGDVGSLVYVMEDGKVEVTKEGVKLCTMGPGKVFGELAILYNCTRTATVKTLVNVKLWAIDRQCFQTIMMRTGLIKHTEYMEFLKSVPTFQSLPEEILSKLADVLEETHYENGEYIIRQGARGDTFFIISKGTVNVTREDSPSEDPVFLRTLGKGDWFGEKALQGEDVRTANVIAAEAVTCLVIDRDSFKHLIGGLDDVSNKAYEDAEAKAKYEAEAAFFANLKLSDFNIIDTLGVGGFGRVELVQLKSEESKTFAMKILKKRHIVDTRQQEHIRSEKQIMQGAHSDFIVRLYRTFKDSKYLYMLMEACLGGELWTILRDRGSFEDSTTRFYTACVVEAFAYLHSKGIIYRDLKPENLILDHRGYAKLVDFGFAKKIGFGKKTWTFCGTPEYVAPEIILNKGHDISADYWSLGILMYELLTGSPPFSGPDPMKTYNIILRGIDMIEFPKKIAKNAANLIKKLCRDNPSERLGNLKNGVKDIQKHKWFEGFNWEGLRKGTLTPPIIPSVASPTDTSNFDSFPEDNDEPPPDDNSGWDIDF
# T3: Ret (h) (human (h), UniProt P07949 658-1114, limits assumed)
# T3 sequence (looked up): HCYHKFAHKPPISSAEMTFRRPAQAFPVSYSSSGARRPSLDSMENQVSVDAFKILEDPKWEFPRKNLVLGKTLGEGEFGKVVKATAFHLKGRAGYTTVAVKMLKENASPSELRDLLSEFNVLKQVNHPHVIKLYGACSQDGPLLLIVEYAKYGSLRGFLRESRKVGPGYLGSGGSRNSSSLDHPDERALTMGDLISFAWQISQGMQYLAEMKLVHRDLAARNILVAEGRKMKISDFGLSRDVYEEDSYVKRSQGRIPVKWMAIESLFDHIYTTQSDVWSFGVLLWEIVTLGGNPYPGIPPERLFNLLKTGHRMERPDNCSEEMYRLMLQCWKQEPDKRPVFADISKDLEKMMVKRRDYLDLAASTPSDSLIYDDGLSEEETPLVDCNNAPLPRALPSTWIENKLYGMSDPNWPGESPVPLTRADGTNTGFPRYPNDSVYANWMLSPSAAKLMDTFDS
# Tests used:
# Assay in all cases: cell-based or functional assay
# BTK (h) = BTK (h) (human (h), UniProt Q06187 1-659)
# ROCK-1 (h) = ROCK-1 (h) (human (h), UniProt Q13464 17-535, limits assumed)
# cKit (h) = cKit (h) (human (h), UniProt P10721 544-976, limits assumed)
# L1MK1 (h) = L1MK1 (h) (human (h), UniProt P53667 285-638, limits assumed)
# MAPKI (h) = MAPKI (h) (human (h), UniProt P28482 1-360, limits assumed)
# Aurora-A (h) = target: T1, Aurora-A (h)
# AMPK (r) = AMPK (r) (rat (r), UniProt Q09137 1-552, limits assumed)
# PKA (h) = PKA (h) (human (h), UniProt P17612 1-351)
# MAPKAP-K3 (h) = MAPKAP-K3 (h) (human (h), UniProt Q16644 1-382, limits assumed)
# Met (h) = Met (h) (human (h), UniProt P08581 974-1390, limits assumed)
# GSK3β (h) = GSK3β (h) (human (h), UniProt P49841 1-420)
# CK2 (h) = CK2 (h) (human (h), UniProt P68400 1-391)
# CaMKI (h) = CaMKI (h) (human (h), UniProt Q14012 1-370, limits assumed)
# Syk (h) = Syk (h) (human (h), UniProt P43405 1-635)
# PKG1β (h) = target: T2, PKG1β (h)
# Pim-1 (h) = Pim-1 (h) (human (h), UniProt P11309 1-313)
# Abl (h) = Abl (h) (human (h), UniProt P00519 27-1130, limits assumed)
# Ret (h) = target: T3, Ret (h)
# KDR (tl) = KDR (tl) (UniProt P35968 790-1356, limits assumed)
# Chain of ROCK-1 (h) (Q13464 17-535 limits assumed): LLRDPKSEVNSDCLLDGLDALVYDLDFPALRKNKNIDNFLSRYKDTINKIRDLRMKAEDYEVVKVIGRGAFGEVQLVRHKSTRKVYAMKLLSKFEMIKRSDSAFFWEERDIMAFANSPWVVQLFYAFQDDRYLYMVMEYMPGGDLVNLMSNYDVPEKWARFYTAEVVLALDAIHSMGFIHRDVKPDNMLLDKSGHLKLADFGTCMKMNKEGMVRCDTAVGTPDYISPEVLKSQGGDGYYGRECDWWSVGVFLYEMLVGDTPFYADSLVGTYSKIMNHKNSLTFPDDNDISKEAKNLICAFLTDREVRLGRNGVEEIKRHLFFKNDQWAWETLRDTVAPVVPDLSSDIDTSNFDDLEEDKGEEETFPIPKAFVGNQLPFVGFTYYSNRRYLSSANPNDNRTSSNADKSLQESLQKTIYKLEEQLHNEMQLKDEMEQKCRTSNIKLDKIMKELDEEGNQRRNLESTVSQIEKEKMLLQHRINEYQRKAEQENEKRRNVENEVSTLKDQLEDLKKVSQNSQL
# Chain of L1MK1 (h) (P53667 285-638 limits assumed): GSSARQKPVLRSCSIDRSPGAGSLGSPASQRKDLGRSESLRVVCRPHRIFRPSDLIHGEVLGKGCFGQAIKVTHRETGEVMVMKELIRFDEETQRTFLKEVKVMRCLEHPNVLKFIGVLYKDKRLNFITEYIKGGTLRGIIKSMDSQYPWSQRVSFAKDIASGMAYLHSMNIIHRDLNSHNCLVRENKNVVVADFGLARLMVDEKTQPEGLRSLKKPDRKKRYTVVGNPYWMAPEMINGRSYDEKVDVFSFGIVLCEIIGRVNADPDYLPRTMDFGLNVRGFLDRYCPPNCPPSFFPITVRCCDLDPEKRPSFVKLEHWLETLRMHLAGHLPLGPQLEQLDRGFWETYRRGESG
# Chain of Met (h) (P08581 974-1390 limits assumed): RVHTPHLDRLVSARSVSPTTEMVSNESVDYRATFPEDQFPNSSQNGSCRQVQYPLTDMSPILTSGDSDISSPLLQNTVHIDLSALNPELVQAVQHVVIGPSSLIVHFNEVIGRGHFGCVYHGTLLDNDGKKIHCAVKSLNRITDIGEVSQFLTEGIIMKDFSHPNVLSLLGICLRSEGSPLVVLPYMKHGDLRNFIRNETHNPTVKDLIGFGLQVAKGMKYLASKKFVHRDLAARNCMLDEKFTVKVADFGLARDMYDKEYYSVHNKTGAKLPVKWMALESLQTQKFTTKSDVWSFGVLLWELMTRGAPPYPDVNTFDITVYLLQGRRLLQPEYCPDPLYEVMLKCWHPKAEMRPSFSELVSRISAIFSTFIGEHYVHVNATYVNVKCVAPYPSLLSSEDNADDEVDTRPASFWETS
# Chain of MAPKI (h) (P28482 whole entry): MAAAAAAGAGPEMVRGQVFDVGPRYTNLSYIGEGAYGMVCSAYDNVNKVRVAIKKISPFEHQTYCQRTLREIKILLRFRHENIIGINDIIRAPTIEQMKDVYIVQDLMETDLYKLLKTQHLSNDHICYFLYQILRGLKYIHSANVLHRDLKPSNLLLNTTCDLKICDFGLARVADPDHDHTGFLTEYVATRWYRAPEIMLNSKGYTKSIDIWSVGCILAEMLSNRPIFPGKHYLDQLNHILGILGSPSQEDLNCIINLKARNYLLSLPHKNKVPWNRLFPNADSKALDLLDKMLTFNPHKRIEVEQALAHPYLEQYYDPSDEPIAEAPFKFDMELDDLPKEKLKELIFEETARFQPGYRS
# Chain of GSK3β (h) (P49841 whole entry): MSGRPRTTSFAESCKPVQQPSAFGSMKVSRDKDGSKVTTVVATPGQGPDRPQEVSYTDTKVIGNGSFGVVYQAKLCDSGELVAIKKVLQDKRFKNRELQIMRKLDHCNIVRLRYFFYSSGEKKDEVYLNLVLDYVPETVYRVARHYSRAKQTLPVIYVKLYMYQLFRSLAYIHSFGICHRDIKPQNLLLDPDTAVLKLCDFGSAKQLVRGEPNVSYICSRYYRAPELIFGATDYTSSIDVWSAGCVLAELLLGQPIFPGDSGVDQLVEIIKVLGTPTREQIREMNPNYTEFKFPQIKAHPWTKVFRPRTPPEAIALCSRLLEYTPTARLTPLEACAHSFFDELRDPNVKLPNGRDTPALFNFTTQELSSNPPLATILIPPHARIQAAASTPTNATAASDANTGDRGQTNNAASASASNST
# Chain of AMPK (r) (Q09137 whole entry): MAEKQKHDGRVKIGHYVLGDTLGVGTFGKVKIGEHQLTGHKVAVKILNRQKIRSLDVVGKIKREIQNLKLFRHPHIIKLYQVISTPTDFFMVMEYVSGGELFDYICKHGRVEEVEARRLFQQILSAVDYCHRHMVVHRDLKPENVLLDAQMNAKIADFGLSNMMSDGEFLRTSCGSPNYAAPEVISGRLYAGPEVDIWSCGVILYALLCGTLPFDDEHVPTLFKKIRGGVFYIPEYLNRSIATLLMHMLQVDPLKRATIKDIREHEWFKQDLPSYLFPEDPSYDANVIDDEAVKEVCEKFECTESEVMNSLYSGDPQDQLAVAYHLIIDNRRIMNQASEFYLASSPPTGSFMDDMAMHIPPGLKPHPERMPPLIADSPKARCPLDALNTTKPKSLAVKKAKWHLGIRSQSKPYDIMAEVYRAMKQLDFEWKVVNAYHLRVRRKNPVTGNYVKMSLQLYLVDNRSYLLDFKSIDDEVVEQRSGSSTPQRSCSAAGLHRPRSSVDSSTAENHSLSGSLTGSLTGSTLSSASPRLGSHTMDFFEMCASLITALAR
# Chain of Pim-1 (h) (P11309 whole entry): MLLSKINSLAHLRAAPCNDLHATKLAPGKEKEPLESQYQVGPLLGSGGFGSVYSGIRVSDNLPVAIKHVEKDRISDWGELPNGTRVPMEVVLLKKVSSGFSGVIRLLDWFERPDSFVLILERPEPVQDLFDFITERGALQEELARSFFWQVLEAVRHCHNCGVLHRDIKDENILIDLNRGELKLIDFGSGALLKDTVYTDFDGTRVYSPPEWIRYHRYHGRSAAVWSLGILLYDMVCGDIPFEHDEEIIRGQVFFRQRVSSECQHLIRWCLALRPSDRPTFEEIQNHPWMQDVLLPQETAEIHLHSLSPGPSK
# Chain of BTK (h) (Q06187 whole entry): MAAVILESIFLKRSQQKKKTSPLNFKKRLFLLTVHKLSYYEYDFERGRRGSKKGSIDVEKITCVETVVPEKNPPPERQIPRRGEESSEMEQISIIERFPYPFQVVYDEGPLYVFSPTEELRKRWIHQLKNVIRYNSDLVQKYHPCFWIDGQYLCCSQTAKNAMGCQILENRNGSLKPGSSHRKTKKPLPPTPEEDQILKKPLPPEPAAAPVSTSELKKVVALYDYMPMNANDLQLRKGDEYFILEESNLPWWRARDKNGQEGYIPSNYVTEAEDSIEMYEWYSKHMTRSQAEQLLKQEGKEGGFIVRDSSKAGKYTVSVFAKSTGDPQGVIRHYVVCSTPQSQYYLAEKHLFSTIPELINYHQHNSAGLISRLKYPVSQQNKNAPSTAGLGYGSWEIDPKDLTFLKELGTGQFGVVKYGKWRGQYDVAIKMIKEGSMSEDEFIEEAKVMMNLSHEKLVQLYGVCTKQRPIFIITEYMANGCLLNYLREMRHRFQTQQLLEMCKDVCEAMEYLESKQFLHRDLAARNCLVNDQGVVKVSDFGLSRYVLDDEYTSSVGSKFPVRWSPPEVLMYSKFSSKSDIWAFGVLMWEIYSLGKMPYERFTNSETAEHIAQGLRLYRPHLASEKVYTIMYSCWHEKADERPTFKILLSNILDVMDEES
# Chain of CK2 (h) (P68400 whole entry): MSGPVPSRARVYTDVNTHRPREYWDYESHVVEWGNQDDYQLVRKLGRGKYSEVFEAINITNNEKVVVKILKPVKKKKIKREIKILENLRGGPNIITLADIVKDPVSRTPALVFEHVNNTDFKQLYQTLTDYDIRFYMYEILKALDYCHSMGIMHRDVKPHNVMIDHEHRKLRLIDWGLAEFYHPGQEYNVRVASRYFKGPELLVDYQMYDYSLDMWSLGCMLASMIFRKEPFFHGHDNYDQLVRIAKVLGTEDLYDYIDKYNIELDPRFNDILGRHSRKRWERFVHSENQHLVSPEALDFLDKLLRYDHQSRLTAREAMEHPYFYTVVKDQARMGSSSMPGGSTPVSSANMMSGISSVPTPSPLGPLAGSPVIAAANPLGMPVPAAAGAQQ
# Chain of MAPKAP-K3 (h) (Q16644 whole entry): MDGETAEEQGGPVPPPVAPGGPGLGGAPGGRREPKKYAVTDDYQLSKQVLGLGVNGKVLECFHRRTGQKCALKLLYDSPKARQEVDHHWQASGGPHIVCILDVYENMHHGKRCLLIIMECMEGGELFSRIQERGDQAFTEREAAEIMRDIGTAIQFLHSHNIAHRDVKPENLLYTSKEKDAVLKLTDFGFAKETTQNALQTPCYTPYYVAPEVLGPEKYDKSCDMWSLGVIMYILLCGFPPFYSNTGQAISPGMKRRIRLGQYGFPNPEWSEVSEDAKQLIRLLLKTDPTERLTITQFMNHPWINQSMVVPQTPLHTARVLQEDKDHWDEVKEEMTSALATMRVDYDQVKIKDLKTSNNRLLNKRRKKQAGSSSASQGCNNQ
# Chain of cKit (h) (P10721 544-976 limits assumed): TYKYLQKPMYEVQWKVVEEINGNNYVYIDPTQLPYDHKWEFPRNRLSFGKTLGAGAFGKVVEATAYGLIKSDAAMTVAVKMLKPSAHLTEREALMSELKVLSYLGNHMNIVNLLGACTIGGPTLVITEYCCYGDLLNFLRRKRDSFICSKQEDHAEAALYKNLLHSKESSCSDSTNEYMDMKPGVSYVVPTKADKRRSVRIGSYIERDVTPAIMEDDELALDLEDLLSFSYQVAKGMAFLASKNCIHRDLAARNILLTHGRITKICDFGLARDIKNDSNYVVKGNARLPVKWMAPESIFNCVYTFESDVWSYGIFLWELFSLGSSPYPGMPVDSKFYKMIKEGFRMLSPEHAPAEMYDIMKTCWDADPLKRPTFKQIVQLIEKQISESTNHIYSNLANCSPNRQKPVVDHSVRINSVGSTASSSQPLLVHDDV
binder,measurement,setting,value
KAFAKLAARLYRKALARQLGVAA,Profile-1 @ = 100 µm (kinase profiler assay),BTK (h),16
same,Profile-1 @ = 100 µm (kinase profiler assay),ROCK-1 (h),29
same,Profile-1 @ = 100 µm (kinase profiler assay),cKit (h),31
same,Profile-1 @ = 100 µm (kinase profiler assay),L1MK1 (h),93
same,Profile-1 @ = 100 µm (kinase profiler assay),MAPKI (h),108
same,Profile-1 @ = 100 µm (kinase profiler assay),Aurora-A (h),60
same,Profile-1 @ = 100 µm (kinase profiler assay),AMPK (r),118
same,Profile-1 @ = 100 µm (kinase profiler assay),PKA (h),103
same,Profile-1 @ = 100 µm (kinase profiler assay),MAPKAP-K3 (h),17
same,Profile-1 @ = 100 µm (kinase profiler assay),Met (h),22
same,Profile-1 @ = 100 µm (kinase profiler assay),GSK3β (h),184
same,Profile-1 @ = 100 µm (kinase profiler assay),CK2 (h),79
same,Profile-1 @ = 100 µm (kinase profiler assay),CaMKI (h),0
same,Profile-1 @ = 100 µm (kinase profiler assay),Syk (h),4
same,Profile-1 @ = 100 µm (kinase profiler assay),PKG1β (h),24
same,Profile-1 @ = 100 µm (kinase profiler assay),Pim-1 (h),1
same,Profile-1 @ = 100 µm (kinase profiler assay),Abl (h),55
same,Profile-1 @ = 100 µm (kinase profiler assay),Ret (h),117
same,Profile-1 @ = 100 µm (kinase profiler assay),KDR (tl),56
